Laboratory results published in the supplement of paper PMC9170038.

System: MS2 coat protein
Assay: apparent KD of MS2 coat protein; designed switch direction (-1 OFF switch, 1 ON switch): -1; higher = weaker reporter binding
Summary of the method: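 Designed RNA switches sharing common flanks were transcribed on Illumina chips by stalled E. coli RNA polymerase. They were titrated with SNAP-549-labelled MS2 coat protein, from 0.7 or 1.5 nM doubling to 3 µM, in Tris-HCl pH 7.5 buffer with KCl, MgCl2, BSA, DTT, tRNA and Tween-20. Titrations ran without input, with 200 uM small-molecule ligand, or with an oligonucleotide input. The apparent KD of each design is the median over its clusters, after curve-fitting of normalised cluster fluorescence.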

[1] = Eterna round: R95, input ligand: FMN 200 uM
[2] = Eterna round: R95, input ligand: microRNA oligo, concentration not stated
[3] = Eterna round: R95, input ligand: none
[4] = input ligand: microRNA oligo, concentration not stated

Sequence	apparent KD of MS2 coat protein (input ligand: FMN 200 uM) [µM]	apparent KD of MS2 coat protein (input ligand: none) [µM]	apparent KD of MS2 coat protein [2] [µM]	apparent KD of MS2 coat protein [4] [µM]	further results
UUGUUACAUGAGGAUCACCCAUGUGAGGAUAUGGCCCGCCCGGCGUGAGCUGGUUUUGUCAGAAGGCGCAUAGG [salish99_ex1_r4_024] (Eterna round: R97, puzzle: Exclusion 1)	0.0796	0.0542			
AGUACUAUCACGAAAGUGAUAGUACAAUAAGCUUGUGGAACAUGAGGAUCACCCAUGUCCUCAUAAGCUCGUCUUAU [Mat - Sensor v3 - Turn-off var 2 - D27] (puzzle: Sensor v3, turn-off variant 2)			0.0687		apparent KD of MS2 coat protein [1]: 0.0157 µM; apparent KD of MS2 coat protein [3]: 0.0147 µM
AAGAACUUAGGAUAUACAUGAGGAUCACCCAUGUAGCUUCACUUGGGCCUGAGCCCGUGUAGAAGGAAGAAAAU [Arge] (Eterna round: R96, puzzle: Exclusion 3)	0.0683	0.0735		0.0476	
CGGGCCCAGGCAGGAUAUGUACAGCCACAAAACCCUCGUGUGAGGGACAUGAGGAUCACCCAUGUAUAGAAGGGCCAGCGCGUA [Xeditein] (Eterna round: R96, puzzle: Exclusion NG 2)	0.0263	0.022		0.014	
CGUUCGCGUGUAGGAUAUGUGUCUGUGUCGGGCGCAGAAGGACAUGAGGAUCACCCAUGUCUGCGGGUGUGGGCGCUCUCUGCG [-29, -28 kcal A 14%] (Eterna round: R96, puzzle: Exclusion NG 1)	0.0696	0.0269		0.0182	
AACAUGUGAGGAUAUGAGAACAGUCCGGAGGACUGUGUAAAUUAGAAGGCACAUGAGGAUCACCCAUGUGACCU [Laonar] (Eterna round: R97, puzzle: Exclusion 4)	0.0326	0.0158			
AAUCCACAUGAGGAUCACCCAUGUCAGGAUAUCGCGCGCGCGUUUUCGGUCUCGCGCGCGAGAAGGGACGGCUG (puzzle: Exclusion 1)			0.022		
GACAUGAGGAUCACCCAUGUAAGGGAUGAACUUCUGGGUAGCUAGGAUAUGGCUACAAAGGUGGACCAGAAGGAGCGUACCCUU [Amaqura] (Eterna round: R96, puzzle: Exclusion NG 3)	0.0106	0.0286		0.0143	
GUUUAGUGAGGAUAUGUGGCUUCGAUCGUGAGAUCGAGGCUACAGAAGGCACAUGAGGAUCACCCAUGUUCCUC [salish99_ex4_r4_104] (Eterna round: R97, puzzle: Exclusion 4)	0.516	0.0389			
UGAUCAGACCGAGGAUAUACAUGGAGGACGCACGUGAGUGCGUCCACUACAUGAGGAUCACCCAUGUAGAAGGCGGUCUGAUCU [JL ENG2 1.92] (Eterna round: R96, puzzle: Exclusion NG 2)	1.1	0.144		0.13	
ACUUGUUGUCCUUGAUAUUACAUGAGGAUCACCCAUGUUAUUGUGAUUAUGAUGUGUAAGUUUGUUGCUCGUUUUAU [JR_STOV1_Sub066] (Eterna round: R97, puzzle: Sensor, turn-off variant 1)	0.0847	0.084			
GCUGGUCGAGGAUAUACAUGAGGAUCACCCAUGUUGAUCAACUGCCGAUAGGCAGAAUGUAGAAGGCGACCAGC [E3/7-A1] (Eterna round: R97, puzzle: Exclusion 3)	0.137	1.11			
UAUGUUGUUGUGAGGAUAUACUUAGUUUGACCGUAGUAGAAGGCACAUGAGGAUCACCCAUGUAGAUGCUUGGU [JR_BME4_Sub006] (puzzle: Brourd's mod of Exclusion 4)			0.00553		
UAUAUAUAGUAAGGAUAUGUAAUUAUUUUAUAGACAGAAGGUACUGACAUGAGGAUCACCCAUGUUUUAGUGUGGGCAUGUAGA [JMF's solution 50] (Eterna round: R96, puzzle: Exclusion NG 1)				0.0609	
CCAAGAAUAGGAUAUACACCAUGUCAGCUUCUAUACAACGCACAUGAGGAUCACCCAUGUAGAAGGGUUCUCUC [Exclusion-2-#3] (Eterna round: R97, puzzle: Exclusion 2)	0.386	0.433			
CAGUACUGAGGAUAUACAUGAGGAUCACCCAUGUCCUUCAGCUAGGAAACUAGCGAAAGUAGAAGGCAGUACUG [Eli x3 4.001] (Eterna round: R97, puzzle: Exclusion 3)	0.366	0.0134			
CGUAAAAGGUAGGAUAUGCUAGACGAAAGUCUAGCAGAAGGACCUACAUGAGGAUCACCCAUGUGUCCAAUACG [Mat - Exclusion 6 - Eli Mod - D22] (Eterna round: R97, puzzle: Exclusion 6)	0.0507	0.117			
UGAUCUAGCGGAGGAUAUACAUGAGGAUCACCCAUGUAGAUGAGUGUACCGUAGUGCACUAUUGUGUAGAAGGCCGCUAGAUCU [JL ENG2 3.63] (Eterna round: R96, puzzle: Exclusion NG 2)	0.0699	0.0198		0.0137	

Sequence	apparent KD of MS2 coat protein (input ligand: FMN 200 uM) [µM]	apparent KD of MS2 coat protein (input ligand: none) [µM]	apparent KD of MS2 coat protein [2] [µM]	apparent KD of MS2 coat protein [4] [µM]	further results
GUUGUGUAAGGAUAUGCCUGGCCGUGAGGCCAGAUUGAAUAGCAGAAGGUACAUGAGGAUCACCCAUGUACGGG [salish99_ex4_4_001] (Eterna round: R97, puzzle: Exclusion 4)	0.109	0.0227			
GCACGGUAAGUGAGGAUAUACCUCUGGAUACAGAGGUAGAAGGCACAUGAGGAUCACCCAUGUCUAUACCGUGC [Fiskers BMX 4 - 81] (puzzle: Brourd's mod of Exclusion 4)			0.0136		apparent KD of MS2 coat protein [1]: 0.0203 µM; apparent KD of MS2 coat protein [3]: 0.0138 µM
AGUAGAUCUACGCUUGCGUGGAUCUGCAAGGCAGGUGUUACAUGAGGAUCACCCAUGUCCUCAUUUGCUCGUCUUAG [JL turnoff v2 99.07] (puzzle: Sensor v3, turn-off variant 2)			1.1		apparent KD of MS2 coat protein [1]: 0.358 µM; apparent KD of MS2 coat protein [3]: 0.332 µM
UAUAUAUAGUAAGGAUAUGUAAUUUUUUUAUAAACAGAAGGUACUGACAUGAGGAUCACCCAUGUUUUAGUGUGGGCAUGUAGA [JMF's solution 32] (Eterna round: R96, puzzle: Exclusion NG 1)				0.0783	
GAAAAGGUAGGAUAUACGAAAAAAAAGGGUAGAAAAAAUACACAUGAGGAUCACCCAUGUAGAAGGACCAAAAG [salish99_ex2_r3_073] (puzzle: Exclusion 2)			0.0239		apparent KD of MS2 coat protein [1]: 0.138 µM; apparent KD of MS2 coat protein [3]: 0.0297 µM
CACCGUUAAAGAGGAUAUCGUACAUGAGGAUCACCCAUGUAAUAAAUGAGAAUUUCGGAUGUAUGCGAGAAGGCUUAAAUCGGC [Ostracism 47 - Jieux - Exclusion NG 2] (Eterna round: R96, puzzle: Exclusion NG 2)				0.0395	
GCUGGGUCAGGAUAUACAAGAUCGAAAGAUCUGUGAAACGAACAUGAGGAUCACCCAUGUAGAAGGGACUGGGC [ChP 11-04-2015 #9] (puzzle: Exclusion 2)			0.0166		
UGCAUGGUAGGAUAUACGGAACAUUAGGGUUUGUUAUGUGGACAUGAGGAUCACCCAUGUAGAAGGGCCGUGCU [JL-ex2-2.15 mat747 mod] (puzzle: Exclusion 2)			0.0404		
UUGCAGUCGUCAGGAUAUAGUAUUACGGCCUUUCAUUUCUUCAUACAUGAGGAUCACCCAUGUCGCUAGAAGGGCUUAUCGCUU [salish99_ExNG2_r04_108] (Eterna round: R96, puzzle: Exclusion NG 2)				0.0111	
GGUCCUGAUGAUUUUCUAUACAUGAGGAUCACCCAUGUAUGUGUAUUUUGUUUUUCGCUUUUUGGUCGUCAAUAAUA [Mod-Hoo-honey] (Eterna round: R97, puzzle: Sensor, turn-off variant 1)	0.0438	0.0443			
AGAAGUAGCAACCGAUCCUACAUGAGGAUCACCCAUGUAGCAAGACGUGCACGCGAAGCUCGUCAGACUACCAGAUG [salish99_TOv1_r3_022] (puzzle: Sensor v3, turn-off variant 1)			0.21		apparent KD of MS2 coat protein [1]: 0.216 µM; apparent KD of MS2 coat protein [3]: 0.168 µM
ACAGCGUGAGGAUAUACAUGAGGAUCACCCAUGUAUGGCAGGUUAUCCUGUCGUAUGUGUAGAAGGCACGCUGU [Exclusion 3 - Oddities v.3 ( A small slide from ms2 to fmn)] (puzzle: Exclusion 3)			0.0508		
AAGAGGCUAGGAUAUACAUGAGGAUCACCCAUGUGAGGGCACGGCCGGCGCGUGGCCGGUAGAAGGAGUCAAAA [Exc;s3-VIII] (puzzle: Exclusion 3)			0.0175		
UAUUCUAGAUAGGAUAUACUUUUUUUUUUUUUCGUAGAAGGAUCUACAUGAGGAUCACCCAUGUUAACAGCAGU [JR_E6_Sub010] (puzzle: Exclusion 6)			0.0516		apparent KD of MS2 coat protein [1]: 0.0665 µM; apparent KD of MS2 coat protein [3]: 0.0404 µM
ACCUUACUGGUCAGGAUAUACAGUCUUUGGUGUGUGUAGAAGGGACAUGAGGAUCACCCAUGUAGGUUGUUUUA [alecazam62b] (Eterna round: R97, puzzle: Brourd's mod of Exclusion 4)	0.237	0.165			
UAUAUAUAGUAAGGAUAUGUAUUAAAUUUAUAAACAGAAGGUACUGACAUGAGGAUCACCCAUGUUUUAGUGUGGGCAUGUAGA [JMF's solution 75] (Eterna round: R96, puzzle: Exclusion NG 1)				0.069	
GGCAUGUAAGGAUAUGCCACUGAGUGCUUUGCGCUCAGUAAGCAGAAGGUACAUGAGGAUCACCCAUGUGAUAA [jl-ex4-4.54 ViennaUCT mod] (Eterna round: R97, puzzle: Exclusion 4)	0.136	0.653			
